# In publication PMC10434240, “An Atypical F-Actin Capping Protein Modulates Cytoskeleton Behaviors Crucial for Trichomonas vaginalis Colonization” (Microbiology Spectrum, 2023):
# T1: HA-TvFACPα(S2A) (Trichomonas vaginalis, UniProt A2FE30 1-261, S2A)
# T1 construct: T. vaginalis F-actin capping protein subunit α (TvFACPα), TVAG_470230; source: transgenic T. vaginalis TH17 trophozoites (Flp-HA-TvFACPα(S2A) plasmid), overexpressed, in lysate
# T1 sequence: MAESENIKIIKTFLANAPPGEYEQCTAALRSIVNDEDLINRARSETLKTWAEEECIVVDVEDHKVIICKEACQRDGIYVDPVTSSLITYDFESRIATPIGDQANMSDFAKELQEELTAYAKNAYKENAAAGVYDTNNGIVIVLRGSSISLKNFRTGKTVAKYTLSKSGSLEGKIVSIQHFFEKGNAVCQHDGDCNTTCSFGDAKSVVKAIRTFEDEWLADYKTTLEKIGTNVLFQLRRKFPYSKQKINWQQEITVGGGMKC
# B1: α-actin (endogenous T. vaginalis) (natural protein)
# chain: not shown
# notes: T. vaginalis α-actin detected by anti-α-actin antibody; other actin genes of the parasite may be detected too; also called F-actin; TvActin; source: endogenous, T. vaginalis TH17 lysate
# B2: Alexa Fluor 555-His-TvFACPα (natural protein)
# chain: MSESENIKIIKTFLANAPPGEYEQCTAALRSIVNDEDLINRARSETLKTWAEEECIVVDVEDHKVIICKEACQRDGIYVDPVTSSLITYDFESRIATPIGDQANMSDFAKELQEELTAYAKNAYKENAAAGVYDTNNGIVIVLRGSSISLKNFRTGKTVAKYTLSKSGSLEGKIVSIQHFFEKGNAVCQHDGDCNTTCSFGDAKSVVKAIRTFEDEWLADYKTTLEKIGTNVLFQLRRKFPYSKQKINWQQEITVGGGMKC
# modifications: Alexa Fluor 555 maleimide label (residue not stated)
# notes: T. vaginalis F-actin capping protein subunit α (TvFACPα), TVAG_470230, 267 amino acids; m6 after dye labelling; source: recombinant from pET28-His-TvFACPα, purified, labelled with Alexa Fluor 555 maleimide
# B3: HA-TvFACPα (natural protein)
# chain: MSESENIKIIKTFLANAPPGEYEQCTAALRSIVNDEDLINRARSETLKTWAEEECIVVDVEDHKVIICKEACQRDGIYVDPVTSSLITYDFESRIATPIGDQANMSDFAKELQEELTAYAKNAYKENAAAGVYDTNNGIVIVLRGSSISLKNFRTGKTVAKYTLSKSGSLEGKIVSIQHFFEKGNAVCQHDGDCNTTCSFGDAKSVVKAIRTFEDEWLADYKTTLEKIGTNVLFQLRRKFPYSKQKINWQQEITVGGGMKC
# notes: T. vaginalis F-actin capping protein subunit α (TvFACPα), TVAG_470230, 267 amino acids; source: transgenic T. vaginalis TH17 trophozoites (Flp-HA-TvFACPα plasmid), overexpressed, in lysate
# How the values were obtained:
# HA-TvFACPα(S2A) = molecular target: T1, HA-TvFACPα(S2A); assay: co-IP; anti-HA agarose beads on lysates of TH17 trophozoites overexpressing HA-TvFACPα or its mutants (1% Triton X-100, 5 mM EDTA in TBS, 4°C overnight); Western blotting for α-actin and α-actinin; also after DMSO or TBB (CKII inhibitor) treatment; settings: partners not purified
# [1] = molecular target: T2, tagless recombinant TvActin (rTvActin) (Trichomonas vaginalis, UniProt P90623 1-376); assay: TIRF microscopy; 6 μM G-rTvActin (10% Alexa Fluor 488-labelled) polymerising in TIRF buffer on NEM-myosin II-coated flow cell with 300 nM His-TvFACPα; Alexa Fluor 555-His-TvFACPα seen at the barbed end; settings: both partners purified
# T2 construct: T. vaginalis α-actin (TvActin), TVAG_337240; Monomeric (G-) in G-buffer, polymerised (F-) in F-buffer; the assay's format tells which; 10% pyrene-labelled in the pyrene assay and 10% Alexa Fluor 488-labelled in TIRF microscopy; also called G-rTvActin; F-rTvActin; source: E. coli BL21, GST-TvActin cleaved with thrombin, purified (heparin-Sepharose, Sephacryl S-300 gel filtration)
# [2] = molecular target: B1; assay: co-sedimentation; actin fractionation of trophozoite lysates (Cytoskeleton Inc. kit): 100,000 × g for 1 h, F-actin and associated proteins in the pellet; Western blotting; nontransgenic and transgenic TH17, flagellate and amoeboid forms, DMSO or TBB, T1 isolate; settings: partners not purified
binder,measurement,setting,value
B1,fold change of coimmunoprecipitated α-actin signal against HA-TvFACPα,HA-TvFACPα(S2A),3 fold
B2,binding result,[1],binds
B3,fold change of cosedimented level against endogenous TvFACPα in the nontransfectant,[2],~2 fold
